Assay results: paper PMC3331940

target: Cdk4/cyclin D1 complex (UniProt P11802)

Substance	maximal extent of Cdk4 inhibition at saturating concentrations [%]
p27-KID^(Y74E, Y89F) (domain or fragment)	98
p27-KID^(pY74, pY88, Y89F) (domain or fragment)	80
p27-KID^(pY88, Y89F) (domain or fragment)	95
